Concentration data for one molecule are collected here from patent US6682731.

In the test the target is HLA-A2 molecule (MHC class I heterodimer, no peptide of the filing added) (human). Description: titration of peptide in 0.174 cell lysate, HLA-A2 stabilisation, immunoprecipitation with BB7.2. As to conditions: remark: other sources report otherwise.

ALSRKVAEL [peptide SEQ ID NO: 2, Ala Leu Ser Arg Lys Val Ala Glu Leu] showed a concentration at which the peptide titrated of 5 to 10 nM.
